The text below walks through data of patent US20090305973A1, “NOVEL PEPTIDE AND USE THEREOF” (priority 2006, published 2009).

For assay [1], the system named is Human foreskin fibroblast cells. The experiment in a line: Fibroblast proliferation, tritium-labeled thymidine incorporation. The class given is cell-based. Conditions: for activity of inducing the proliferation of fibroblast cells: 100 nM, 12 hours, incorporated thymidine. As for the experimental part:
(§1) Human foreskin fibroblast cells (MC1232 obtained from MIT), U2OS cells (ATCC HTB-96) and bovine aorta endothelial cells (hereinafter, referred to as “BAECs”) were treated with the AIMP1 fragments cleaved by elastase 2 in Test Example <1-1>, and the effects of the AIMP1 fragments on the proliferation of the cells were examined.
(§2) Bovine aorta endothelial cells (BAECs) were isolated from bovine descending thoracic aorta and cultured in Dulbecco's modified Eagle's medium (DMEM) containing 20% FBS at 37° C. in a 5% CO2 atmosphere. The foreskin fibroblast cells and the U2OS cells were cultured in DMEM with 10% FBS and 1% antibiotic. Each of the cultured cell lines (5×10^3 cells) was cultivated in a 24-well dish for 12 hours and then subjected to serum-starved culture for 3 hours. Next, 100 nM of a full-length AIMP1 or fragments of AIMP1 cleaved with an enzyme were added to each well and cultivated for 12 hours. The control group was without the testing agents. After completion of the cultivation, tritium-labeled thymidine (1 μCi/well) was added to each well, and the cells were additionally cultured at 37° C. for 4 hours. The cultured cells were washed with PBS three times and fixed with 5% TCA for 10 minutes, followed by washing again with PBS three times. The cells were lysed with 0.5N NaOH, and the incorporated thymidine was quantified with a liquid scintillation counter.
In order to examine the fibroblast proliferation activities of the recombinant proteins constructed in Example 1, foreskin fibroblast cells were treated with each of the recombinant proteins in the same manner as in Test Example <1-2>, and the proliferation of the fibroblast cells was examined.
Whether the AIMP1-(6-46) fragment synthesized in Example <3-1> stimulates the proliferation of fibroblast cells was examined in the same manner as in Test Example <1-2>. Herein, the AIMP1-(6-46) fragment was used at various concentrations ([…]), and 100 nM of the full-length AIMP1 (AIMP1-(1-132)) was used as a control.

In another assay the test system is C57BL/6 mice. The experiment in a line: In vivo wound healing (wound closure) of excised back skin wound. To be noted: 200 nM in PBS containing 20% glycerol, applied to wound twice a day until day 8, 0.5 cm-diameter back wound. As for the experimental part: AIMP1-(14-34) (SEQ ID NO: 6) and AIMP1-(26-46) (SEQ ID NO: 7) fragments smaller than the AIMP1-(6-46) fragment synthesized in Example 3 were synthesized by a chemical synthetic method in Peptron (http://www.peptron.co.kr), and the wound healing-promoting activities thereof were analyzed in vivo. The analysis of the wound healing activities was performed using 8-week-old C57BL/6 mice. The mice were anesthetized with an intraperitoneal injection of 2.5% avertin (100 μl/10 g), and then the back of each animal was shaved, followed by disinfecting the back skin with 70% alcohol. The back skin was marked with a 0.5 cm-diameter circle, and a skin and panniculus carnosus muscle was removed with scissors to induce a wound. The wounds were left uncovered without a dressing. One wound was generated per mouse and treated with 200 nM of each of AIMP1-(14-34), AIMP1-(26-46) and AIMP1-(6-46) fragments in PBS (phosphate-buffered saline) containing 20% glycerol, twice a day at 12-hour intervals until day 8 after wounding. A control group was treated only with PBS containing 20% glycerol. Then, wound closure was monitored daily using the Image-pro Plus software and was calculated as the percentage of the initial wound area.

Assay [2] concerns bovine aorta endothelial cells. Put plainly: Endothelial cell proliferation, tritium-labeled thymidine incorporation. Type of assay: cell-based. To be noted: 100 nM, 12 hours, BAECs, incorporated thymidine. As for the experimental part: as §1, §2
On the technique in general: Uptake of a labelled nucleoside into DNA is a usual measure of proliferation.

Where no end group is shown, it is not given here.

On to “AIMP1-(1-46): recombinant deletion mutant of AIMP1, expressed as GST-tag fusion protein (MANNDAVLKRLEQKGAEADQIIEYLKQQVSLLKEKAILQATLREEK; also: GST tag fusion, end not given here; listed as Homo sapiens)”, for which the “activity of inducing the proliferation of fibroblast cells” value (“activity … of fibroblast cells” below) in assay [1] (foreskin fibroblast cells) is listed as “high proliferation-inducing activity”.

As for “AIMP1-(1-53): recombinant deletion mutant of AIMP1, expressed as GST-tag fusion protein (MANNDAVLKRLEQKGAEADQIIEYLKQQVSLLKEKAILQATLREEKKLRVENA; also: GST tag fusion, end not given here; listed as Homo sapiens)”, the “activity … of fibroblast cells” value in assay [1] (foreskin fibroblast cells) is given as “high proliferation-inducing activity”.

Consider “AIMP1-(14-34): 21-amino-acid fragment of AIMP1-(6-46), chemically synthesized (KGAEADQIIEYLKQQVSLLKE; PEPTIDE (1)..(21) AIMP1-(14-34); listed as Homo sapiens)”, for which the “activity of promoting wound healing (wound closure as percentage of the initial wound area)” value in the assay on C57BL/6 mice was “had the activities of promoting wound healing”.

Turning to “AIMP1-(26-46): 21-amino-acid fragment of AIMP1-(6-46), chemically synthesized (KQQVSLLKEKAILQATLREEK; PEPTIDE (1)..(21) AIMP1-(26-46); listed as Homo sapiens)”, the “activity of promoting wound healing (wound closure as percentage of the initial wound area)” value in the assay with C57BL/6 mice was “had the activities of promoting wound healing”.

Regarding “NH2-AVLKRLEQKGAEADQIIEYLKQQVSLLKEKAILQATLREEK-COOH (H-AVLKRLEQKGAEADQIIEYLKQQVSLLKEKAILQATLREEK-OH; listed as Homo sapiens) [AIMP1-(6-46), peptide corresponding to amino acids 6-46 of AIMP1, expressed in E. coli]”, the “proliferation of fibroblast cells, dose dependence” value in assay [1] (concentrations 0, 50, 100 and 200 mM (so in the source), foreskin fibroblast cells) is recorded as “induced the proliferation of fibroblast cells in a dose-dependent manner”. The “fibroblast proliferation activity compared with full-length AIMP1 at the same concentration” value in assay [1] (control 100 nM full-length AIMP1) is on record as “almost similar to the full-length AIMP1”. In addition, the “activity of promoting wound healing (wound closure as percentage of the initial wound area)” value with C57BL/6 mice is on record as “had the activities of promoting wound healing”.

B1: AIMP1-(193-312): recombinant deletion mutant of AIMP1, expressed as GST-tag fusion protein (protein, UniProt Q12904 193-312, looked up, fragment)
chain: LVNHVPLEQMQNRMVILLCNLKPAKMRGVLSQAMVMCASSPEKIEILAPPNGSVPGDRITFDAFPGEPDKELNPKKKIWEQIQPDLHTNDECVATYKGVPFEVKGKGVCRAQTMSNSGIK
modifications: GST tag
notes: recombinant deletion mutant of AIMP1, expressed as GST-tag fusion protein
Regarding B1, in assay [1] (foreskin fibroblast cells), the “activity … of fibroblast cells” value is reported as “did not”.

B2: AIMP1-(1-192): recombinant deletion mutant of AIMP1, expressed as GST-tag fusion protein (protein, listed as Homo sapiens)
chain: MANNDAVLKRLEQKGAEADQIIEYLKQQVSLLKEKAILQATLREEKKLRVENAKLKKEIEELKQELIQAEIQNGVKQIAFPSGTPLHANSMVSENVIQSTAVTTVSSGTKEQIKGGTGDEKKAKEKIEKKGEKKEKKQQSIAGSADSKPIDVSRLDLRIGCIITARKHPDADSLYVEEVDVGEIAPRTVVSG
modifications: GST tag fusion; PEPTIDE (1)..(192) AIMP1-(1-192)
notes: as for B1
For B2, in assay [1] (foreskin fibroblast cells), the “activity … of fibroblast cells” value is on record as “high proliferation-inducing activity”.

B3: AIMP1-(6-192): recombinant deletion mutant of AIMP1, expressed as GST-tag fusion protein (protein, listed as Homo sapiens)
chain: AVLKRLEQKGAEADQIIEYLKQQVSLLKEKAILQATLREEKKLRVENAKLKKEIEELKQELIQAEIQNGVKQIAFPSGTPLHANSMVSENVIQSTAVTTVSSGTKEQIKGGTGDEKKAKEKIEKKGEKKEKKQQSIAGSADSKPIDVSRLDLRIGCIITARKHPDADSLYVEEVDVGEIAPRTVVSG
modifications: GST tag fusion; PEPTIDE (1)..(187) AIMP1-(6-192)
notes: as for B1
Turning to B3, in assay [1] (foreskin fibroblast cells), the “activity … of fibroblast cells” value was “high proliferation-inducing activity”.

B4: AIMP1-(1-312): full-length ARS-interacting multi-functional protein 1 consisting of 312 amino acids (protein, listed as Homo sapiens)
chain: MANNDAVLKRLEQKGAEADQIIEYLKQQVSLLKEKAILQATLREEKKLRVENAKLKKEIEELKQELIQAEIQNGVKQIAFPSGTPLHANSMVSENVIQSTAVTTVSSGTKEQIKGGTGDEKKAKEKIEKKGEKKEKKQQSIAGSADSKPIDVSRLDLRIGCIITARKHPDADSLYVEEVDVGEIAPRTVVSGLVNHVPLEQMQNRMVILLCNLKPAKMRGVLSQAMVMCASSPEKIEILAPPNGSVPGDRITFDAFPGEPDKELNPKKKIWEQIQPDLHTNDECVATYKGVPFEVKGKGVCRAQTMSNSGIK
B4: the “activity … of fibroblast cells” value in assay [1] (foreskin fibroblast cells) is reported as “high proliferation-inducing activity”. For the same molecule, the “activity of inhibiting the proliferation of endothelial cells” value in assay [2] is “inhibiting the proliferation of endothelial cells”.

B5: AIMP1-(30-192): recombinant deletion mutant of AIMP1, expressed as GST-tag fusion protein (protein, UniProt Q12904 30-192, looked up, fragment)
chain: SLLKEKAILQATLREEKKLRVENAKLKKEIEELKQELIQAEIQNGVKQIPFPSGTPLHANSMVSENVIQSTAVTTVSSGTKEQIKGGTGDEKKAKEKIEKKGEKKEKKQQSIAGSADSKPIDVSRLDLRIGCIITARKHPDADSLYVEEVDVGEIAPRTVVSG
modifications: GST tag
notes: as for B1
Take B5: the “activity … of fibroblast cells” value in assay [1] (foreskin fibroblast cells) is “did not”.

B6: AIMP1-(114-192): recombinant deletion mutant of AIMP1, expressed as GST-tag fusion protein (protein, UniProt Q12904 114-192, looked up, fragment)
chain: KGGTGDEKKAKEKIEKKGEKKEKKQQSIAGSADSKPIDVSRLDLRIGCIITARKHPDADSLYVEEVDVGEIAPRTVVSG
modifications: GST tag
notes: as for B1
Regarding B6, the “activity … of fibroblast cells” value in assay [1] (foreskin fibroblast cells) is given as “did not”.

B7: AIMP1-(101-192): recombinant deletion mutant of AIMP1, expressed as GST-tag fusion protein (protein, UniProt Q12904 101-192, looked up, fragment)
chain: AVTTVSSGTKEQIKGGTGDEKKAKEKIEKKGEKKEKKQQSIAGSADSKPIDVSRLDLRIGCIITARKHPDADSLYVEEVDVGEIAPRTVVSG
modifications: GST tag
notes: as for B1
On to B7, for which the “activity … of fibroblast cells” value in assay [1] (foreskin fibroblast cells) was “did not”.

B8: AIMP1-(47-192): recombinant deletion mutant of AIMP1, expressed as GST-tag fusion protein (protein, UniProt Q12904 47-192, looked up, fragment)
chain: KLRVENAKLKKEIEELKQELIQAEIQNGVKQIPFPSGTPLHANSMVSENVIQSTAVTTVSSGTKEQIKGGTGDEKKAKEKIEKKGEKKEKKQQSIAGSADSKPIDVSRLDLRIGCIITARKHPDADSLYVEEVDVGEIAPRTVVSG
modifications: GST tag
notes: as for B1
As for B8, the “activity … of fibroblast cells” value in assay [1] (foreskin fibroblast cells) is listed as “did not”.

B9: AIMP1-(54-192): recombinant deletion mutant of AIMP1, expressed as GST-tag fusion protein (protein, UniProt Q12904 54-192, looked up, fragment)
chain: KLKKEIEELKQELIQAEIQNGVKQIPFPSGTPLHANSMVSENVIQSTAVTTVSSGTKEQIKGGTGDEKKAKEKIEKKGEKKEKKQQSIAGSADSKPIDVSRLDLRIGCIITARKHPDADSLYVEEVDVGEIAPRTVVSG
modifications: GST tag
notes: as for B1
B9: the “activity … of fibroblast cells” value in assay [1] (foreskin fibroblast cells) is “did not”.
